Literature values, collected in PMC6277024.

Target: WRESAI hexapeptide

- Kd: 10 nM
Substance: Tip-1 PDZ (from UniProt O14907)
